The Kd is the concentration at which binding is half-saturated. Read a high Kd as weaker binding. By koff is commonly meant a measure of how fast the partners let go of each other. Low readings indicate slow dissociation, high ones fast dissociation. As usually defined, the kon is the rate constant with which the complex forms. Read a high kon as fast association.

This note sets out measurements from patent US20230272056A1 (Merck Sharp & Dohme, published 2023).

Numbering of substitutions follows the chain as printed. Names may count otherwise.

Sequences and labels used below:
B1: 16BLM (antibody, human IgG1, kappa, L234A L235A, V domains shown)
VH: EVQLVQSGAEVKKPGASVKVSCKASGYTFTSYDMHWVRQAPGQGLEWMGRIDPQSGGIKYAQKFQGRATLTVDTSTSTAYMELSRLRSDDTAVYYCARWDYGGYFDVWGQGTLVTVSS
VL: DIQMTQSPSSLSASVGDRVTITCRASQDIYNYLNWYQQKPGKAVKLLIYYTSVLETGVPSRFSGSGSGTDYTLTISSLQPEDFATYFCQQGDTLPWTFGQGTKLEIKR
notes: IgG1 L234A L235A D265S/kappa; also called 79BLH; 52BMD
B2: 15BLM (antibody, human IgG1, kappa, L234A L235A, V domains shown)
VH: B1 VH
VL: B1 VL with V53R
notes: IgG1 L234A L235A D265S/kappa; also called 78BLH; 51BMD
B3: 18BLM (antibody, human IgG1, kappa, L234A L235A, V domains shown)
VH: B1 VH with W99Y, Y101H
VL: B1 VL with V53R
notes: IgG1 L234A L235A D265S/kappa; also called 81BLH; 54BMD
B4: 12BLM (antibody, human IgG1, kappa, L234A L235A, V domains shown)
VH: B1 VH with I58V
VL: B1 VL with T93E
notes: IgG1 L234A L235A D265S/kappa; also called 75BLH; 48BMD
B5: 07BLM (antibody, human IgG1, kappa, L234A L235A, V domains shown)
VH: B1 VH with K59R
VL: B1 VL with N31S, V53N
notes: IgG1 L234A L235A D265S/kappa; also called 70BLH; 43BMD
B6: 19BLM (antibody, human IgG1, kappa, L234A L235A, V domains shown)
VH: B1 VH with W99Y, Y101H
VL: B1 VL with V53Y
notes: IgG1 L234A L235A D265S/kappa; also called 82BLH; 55BMD
B7: 11BLM (antibody, human IgG1, kappa, L234A L235A, V domains shown)
VH: B1 VH with K59R
VL: B1 VL
notes: IgG1 L234A L235A D265S/kappa; also called 74BLH; 47BMD
B8: 66BLH (Fab, V domains shown)
VH: B1 VH with W99Y, Y101H
VL: DIQMTQSPSSLSASVGDRVTITCRASQDIYNYLNWYQQKPGKAVKLLIYYTSRLETGVPSRFSGSGSGTDYTLTISSLQPEDFATYFCQQGDTLPWTFGQGTKLEIK
notes: also called 18BLM Fab
B9: 65BLH (Fab, V domains shown)
VH: B1 VH
VL: B8 VL with T93E
notes: also called 17BLM Fab

Chain of human LAP-TGFβ1 expressed on P3U1 cells (P01137 30-390): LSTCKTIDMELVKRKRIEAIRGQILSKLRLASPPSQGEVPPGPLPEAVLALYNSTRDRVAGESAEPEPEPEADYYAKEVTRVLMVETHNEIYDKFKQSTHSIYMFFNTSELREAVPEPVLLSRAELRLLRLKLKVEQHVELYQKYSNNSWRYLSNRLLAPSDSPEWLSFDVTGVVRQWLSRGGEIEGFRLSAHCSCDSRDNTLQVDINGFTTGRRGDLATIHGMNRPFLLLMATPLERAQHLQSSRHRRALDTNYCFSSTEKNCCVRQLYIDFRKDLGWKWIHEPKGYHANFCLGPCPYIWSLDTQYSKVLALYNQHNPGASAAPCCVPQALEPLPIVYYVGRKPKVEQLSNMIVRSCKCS
T4 sequence (chain, as listed by the source limits assumed): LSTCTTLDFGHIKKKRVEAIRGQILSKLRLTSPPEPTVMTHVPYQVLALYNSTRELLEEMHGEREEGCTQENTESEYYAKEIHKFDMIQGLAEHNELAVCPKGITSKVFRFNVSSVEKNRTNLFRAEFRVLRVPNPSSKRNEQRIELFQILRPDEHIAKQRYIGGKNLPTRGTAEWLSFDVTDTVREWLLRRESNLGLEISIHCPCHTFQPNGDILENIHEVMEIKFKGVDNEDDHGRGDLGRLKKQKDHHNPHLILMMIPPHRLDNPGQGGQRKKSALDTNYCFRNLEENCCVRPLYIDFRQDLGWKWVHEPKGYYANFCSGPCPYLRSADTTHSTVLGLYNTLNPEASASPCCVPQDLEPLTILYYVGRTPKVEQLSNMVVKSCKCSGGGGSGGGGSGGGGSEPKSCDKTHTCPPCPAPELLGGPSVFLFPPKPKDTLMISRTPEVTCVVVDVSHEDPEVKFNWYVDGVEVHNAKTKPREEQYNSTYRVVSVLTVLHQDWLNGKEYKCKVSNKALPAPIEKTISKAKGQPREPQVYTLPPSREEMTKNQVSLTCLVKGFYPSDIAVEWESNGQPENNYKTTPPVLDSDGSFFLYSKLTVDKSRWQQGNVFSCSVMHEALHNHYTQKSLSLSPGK

One assay has as its target human LAP-TGFβ1 expressed on P3U1 cells (human, UniProt P01137 30-390). As to the kind of experiment: cell-based or functional assay.
With B1, the “Average EC50” value is 0.104 µg/mL, the “ELISA assay 2 EC50” value turned out to be 0.126 µg/mL and the “ELISA assay #1 EC50” value is 0.0816 µg/mL.
For B2 the same measures were 0.231 µg/mL, 0.243 µg/mL and 0.219 µg/mL.
The matching figures for B3: 0.052 µg/mL, 0.006 µg/mL and 0.0982 µg/mL.
Consider B4, for which the “Average EC50” value was determined as 0.063 µg/mL, the “ELISA assay 2 EC50” value is 0.096 µg/mL and the “ELISA assay #1 EC50” value stood at 0.0295 µg/mL.
The matching figures for B5: 0.076 µg/mL, 0.119 µg/mL and 0.0332 µg/mL.
The matching figures for B6: 0.179 µg/mL, 0.205 µg/mL and 0.152 µg/mL.
The matching figures for B7: 0.083 µg/mL, 0.112 µg/mL and 0.0539 µg/mL.

The target in a further assay is T1, human LAP-TGFB1 Fc fusion (human).
T1 construct: also called human LAP-TGFβ1-Fc; human LAP-TGFβ-Fc isoform 1
T1 sequence (chain, as listed by the source limits assumed): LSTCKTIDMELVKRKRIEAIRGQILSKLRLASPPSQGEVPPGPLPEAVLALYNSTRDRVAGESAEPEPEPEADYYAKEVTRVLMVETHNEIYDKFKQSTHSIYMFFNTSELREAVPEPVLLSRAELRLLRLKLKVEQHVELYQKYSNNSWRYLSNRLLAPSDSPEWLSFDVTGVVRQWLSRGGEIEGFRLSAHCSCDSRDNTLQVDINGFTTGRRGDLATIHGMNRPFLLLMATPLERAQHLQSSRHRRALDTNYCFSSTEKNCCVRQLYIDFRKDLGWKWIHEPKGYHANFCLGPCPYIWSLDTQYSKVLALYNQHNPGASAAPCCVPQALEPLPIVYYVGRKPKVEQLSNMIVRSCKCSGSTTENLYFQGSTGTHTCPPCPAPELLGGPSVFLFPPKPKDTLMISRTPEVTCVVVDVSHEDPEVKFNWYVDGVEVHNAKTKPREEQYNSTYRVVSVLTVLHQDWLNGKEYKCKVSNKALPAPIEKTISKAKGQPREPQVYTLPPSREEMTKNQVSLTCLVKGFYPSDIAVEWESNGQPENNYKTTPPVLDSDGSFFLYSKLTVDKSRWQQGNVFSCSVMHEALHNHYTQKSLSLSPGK
As to the kind of experiment: SPR pH 6.0, antigen captured on Fab 54BLH. The text has this: (§1) A Series S C1 sensor chip (Cytiva, catalog BR100535) was immobilized with low densities of high affinity Fab 54BLH on a Biacore T200 instrument with 1×HBS-EP+(Teknova, catalog H8022). This surface served as a monovalent capture surface for a low-density layer of heterodimer human LAP-TGFβ1 complex leaving the second binding site exposed for monovalent kinetic binding analysis with both mAbs and Fabs. Immobilized flow cell 1 served as the reference and flow cells 2, 3 and 4 were used to evaluate the binding interaction between human LAP-TGFβ1 and yeast display mutant mAbs and Fabs.
(§2) Approximately 15-25 RU of human LAP-TGFβ1-Fc was captured to the Fab capture surface followed by injection of 1:3 serially diluted Fabs and mAbs from 6 nM to 0.07 nM (Fabs: 54BLH, 55BLH, 60BLH, 63BLH, 64BLH-mAbs: 69BLH, 70BLH) and 1:3 serially diluted Fab and mAbs from 60 nM to 0.74 nM (Fabs: 59BLH, 66BLH, 67BLH—mAbs: 74BLH, 75BLH, 78BLH, 79BLH, 81BLH, 82BLH) including 0 nM. The binding data was double referenced by subtraction of signal from a reference flow cell and the 0 nM injections for evaluation of Fabs and mAbs respectively. Binding rate constants were calculated/determined by fitting the data with a 1:1 binding model (Cytiva Biacore T200 Evaluation software 3.0).
For B1, the “Fab/mAb KD Ratio” value stood at 1.6, the Kd was 0.11 nM, the koff stood at 0.00122 s⁻¹ and the on-rate (kon) was 1.12e+07 M⁻¹ s⁻¹.
Take B2: the “Fab/mAb KD Ratio” value stood at 3.2, binding was put at a Kd of 0.331 nM, the koff was 0.00399 s⁻¹ and the kon was 1.21e+07 M⁻¹ s⁻¹.
In the case of B8, the Kd amounted to 16.8 nM, the koff was 0.0329 s⁻¹ and the kon was found to be 1.96e+06 M⁻¹ s⁻¹.
As to B3, the “Fab/mAb KD Ratio” value amounted to 1.8, the Kd was 9.11 nM, the koff stood at 0.0489 s⁻¹ and the kon amounted to 5.65e+06 M⁻¹ s⁻¹.
For B4, the “Fab/mAb KD Ratio” value was found to be 2.2; the affinity, expressed as Kd, was 0.136 nM; the koff is 0.000936 s⁻¹; the on-rate constant (kon) came out at 6.86e+06 M⁻¹ s⁻¹.
B5: the “Fab/mAb KD Ratio” value is 2.2, the Kd is 0.155 nM, the koff was found to be 0.00131 s⁻¹ and the kon came to 8.47e+06 M⁻¹ s⁻¹.
For B6 the same measures were 5.5, 3.43 nM, 0.0365 s⁻¹ and 1.07e+07 M⁻¹ s⁻¹.
The matching figures for B7: 1.3, 0.133 nM, 0.000892 s⁻¹ and 6.75e+06 M⁻¹ s⁻¹.

A further assay concerns the target T1, human LAP-TGFB1 Fc fusion. As to the kind of experiment: SPR pH 7.4, antigen captured on Fab 54BLH.
Source text: as §1, §2
For the molecule B1, the “Fab/mAb KD Ratio” value came to 1.6, binding was put at a Kd of 0.038 nM, the koff came to 0.000552 s⁻¹ and the on-rate (kon) stood at 1.44e+07 M⁻¹ s⁻¹.
Take B2: the “Fab/mAb KD Ratio” value was found to be 4, binding was put at a Kd of 0.0876 nM, the koff is 0.00196 s⁻¹ and the kon is 2.22e+07 M⁻¹ s⁻¹.
For the molecule B8, the dissociation constant (Kd) was found to be 3.13 nM, the koff turned out to be 0.0181 s⁻¹ and the kon stood at 5.76e+06 M⁻¹ s⁻¹.
In the case of B3, the “Fab/mAb KD Ratio” value worked out at 3.3, the Kd worked out at 0.959 nM, the koff was 0.00518 s⁻¹ and the on-rate (kon) stood at 5.4e+06 M⁻¹ s⁻¹.
For the molecule B4, the “Fab/mAb KD Ratio” value came to 3.2, the Kd stood at 0.0111 nM, the koff was 0.000212 s⁻¹ and the kon was 1.91e+07 M⁻¹ s⁻¹.
For B5 the same measures were 0.3, 0.047 nM, 0.000671 s⁻¹ and 1.45e+07 M⁻¹ s⁻¹.
The matching figures for B6: 13.3, 0.178 nM, 0.014 s⁻¹ and 7.82e+07 M⁻¹ s⁻¹.
Take B7: the “Fab/mAb KD Ratio” value is 1.7, binding was put at a Kd of 0.026 nM, the koff was found to be 0.000374 s⁻¹ and the on-rate (kon) came to 1.47e+07 M⁻¹ s⁻¹.

For a further assay, the target named is T1, human LAP-TGFB1 Fc fusion. As to the kind of experiment: SPR pH 6.0, antigen-Fc captured, Fab analyte. How it is done:
A Series S CM4 sensor chip (Cytiva, catalog BR100534) was immobilized with an anti-human Fc capture antibody following the kit protocol (Cytiva, catalog BR100839) on a Biacore T200 instrument with 1× HBS-EP+ (Teknova, catalog H8022). […] The binding data were double referenced by subtraction of signal from a reference (capture surface only) flow cell and the 0 nM Fab injection. Binding rate constants were determined by fitting the data with a 1:1 binding model (Cytiva Biacore T200 Evaluation software 3.0).
For the molecule B8, the koff is 0.0221 s⁻¹ and the kon is 2.09e+06 M⁻¹ s⁻¹.

The target in a further assay is T2, human LAP-TGFβ1 (construct not stated) (human, UniProt P01137 30-390).
T2 construct: also called human LAP-TGFβ isoform 1; titrant
T2 sequence (P01137 30-390 limits assumed): as the sequence (P01137 30-390) above
As to the kind of experiment: KinExA, mAb as constant binding partner. How it is done:
An orthogonal kinetic exclusion assay (KinExA) method was used in this study to measure the affinities of affinity-matured anti-LAP-TGFβ1 antibodies (referred to as the constant binding partner, CBP) and human LAP-TGFβ1 (referred to as the titrant). To determine the free CBP concentration in solution, biotinylated human LAP-TGFβ1 coated PMMA (Sapidyne, catalog 440176) beads were prepared by first coating with biotin-BSA (ThermoScientific, catalog 29130) followed by streptavidin (Invitrogen, catalog S888), and a final coat with biotinylated human LAP-TGFβ1-Fc.
For association rate analysis, an experimentally optimized constant concentration of CBP and titrant, were mixed 1:1 and free CBP was measured at timed intervals ranging from 15 to 10000 seconds. […] The data were analyzed with KinExA Pro software (version 4.4.26) where the free CBP binding signals were converted into percent free response, plotted against time (seconds) and processed with the n-curve software “Kinetics, Direct” analysis method.
For equilibrium affinity analysis, two experimentally optimized CBP concentrations were combined with 1:2 serially diluted titrant, human LAP-TGFβ1, and incubated at room temperature to achieve equilibrium. […] The data was analyzed with KinExA Pro software (version 4.4.26) where the free CBP binding signals were converted into percent free response and plotted against the titrant concentration series. The equilibrium KD was determined by processing with n-curve software “Equilibrium” analysis method.
Background: A kinetic exclusion assay measures how much of one partner remains free in solution.
The molecule B1 yielded a Kd of 0.00275 nM, a dissociation rate constant (koff) of 1.38e-05 s⁻¹ and a kon of 5.03e+06 M⁻¹ s⁻¹.
In turn, B2 gave a Kd of 0.00235 nM, an off-rate constant (koff) of 2.56e-05 s⁻¹ and a kon of 1.09e+07 M⁻¹ s⁻¹.
For B3 the same measures were 0.0621 nM, 6.09e-06 s⁻¹ and 98300 M⁻¹ s⁻¹.
The matching figures for B4: 0.000367 nM, 7.71e-06 s⁻¹ and 2.04e+07 M⁻¹ s⁻¹.
Take B5: the affinity, expressed as Kd, was 0.00224 nM; the koff is 2.82e-05 s⁻¹; the association rate constant (kon) was found to be 1.28e+07 M⁻¹ s⁻¹.
The molecule B6 had a Kd of 0.068 nM, a koff of 1.98e-06 s⁻¹ and a kon of 29200 M⁻¹ s⁻¹.
For B7 the same measures were 0.00133 nM, 8.14e-06 s⁻¹ and 1.63e+07 M⁻¹ s⁻¹.

The next assay has as its target T1, human LAP-TGFB1 Fc fusion. As to the kind of experiment: SPR pH 7.4, antigen-Fc captured, Fab analyte.
Take B9: the affinity, expressed as Kd, was 0.146 nM; the off-rate constant (koff) came out at 0.00107 s⁻¹; the kon is 7.33e+06 M⁻¹ s⁻¹.

The next assay has as its target T1, human LAP-TGFB1 Fc fusion. As to the kind of experiment: SPR. In general terms: SPR reads the build-up and loss of mass on a sensor chip optically.
As for B9, the “Fold change in KD from pH 7.4 to pH 6” value worked out at 0.4 fold.

In another assay the target is T3, human LAP-TGFB2 Fc fusion (human).
T3 construct: also called human LAP-TGFβ2; LAP-TGFβ isoform 2
T3 sequence (chain, as listed by the source limits assumed): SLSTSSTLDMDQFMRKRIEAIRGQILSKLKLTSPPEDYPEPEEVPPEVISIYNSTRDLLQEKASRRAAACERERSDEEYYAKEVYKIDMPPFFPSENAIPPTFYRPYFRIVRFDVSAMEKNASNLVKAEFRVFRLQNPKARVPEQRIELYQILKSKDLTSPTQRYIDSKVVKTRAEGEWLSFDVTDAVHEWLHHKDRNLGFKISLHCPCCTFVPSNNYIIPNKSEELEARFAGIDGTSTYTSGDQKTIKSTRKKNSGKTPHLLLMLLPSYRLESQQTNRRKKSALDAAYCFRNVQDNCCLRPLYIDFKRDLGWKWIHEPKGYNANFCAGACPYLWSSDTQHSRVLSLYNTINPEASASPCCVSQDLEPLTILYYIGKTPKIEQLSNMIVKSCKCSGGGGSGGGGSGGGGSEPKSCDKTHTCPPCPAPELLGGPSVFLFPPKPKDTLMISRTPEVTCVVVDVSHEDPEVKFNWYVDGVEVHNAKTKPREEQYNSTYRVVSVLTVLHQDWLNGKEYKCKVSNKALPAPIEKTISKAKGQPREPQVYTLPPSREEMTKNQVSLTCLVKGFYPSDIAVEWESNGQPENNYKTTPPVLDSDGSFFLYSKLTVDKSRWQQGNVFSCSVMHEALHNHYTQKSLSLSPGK
As to the kind of experiment: SPR pH 7.4.
B9: the binding result is “no binding (tested: 1000 nM Fab)”.
Still for that read-out and setting: the value for B8 was “no binding (tested: 1000 nM Fab)”.

A further assay concerns the target T4, human LAP-TGFB3 Fc fusion (human).
T4 construct: also called human LAP-TGFβ3; LAP-TGFβ isoform 3
As to the kind of experiment: SPR pH 7.4.
B9: the binding result was “no binding (tested: 1000 nM Fab)”.
Still for that read-out and setting: the result for B8 reads “no binding (tested: 1000 nM Fab)”.

The target of another assay is T1, human LAP-TGFB1 Fc fusion. As to the kind of experiment: SPR pH 7.4, antigen-Fc captured, Fab analyte. The source holds these as a separate data set.
In the case of B9, the “Fold improvement in KD” value came out at 401 fold; the affinity, expressed as Kd, was 0.146 nM; the koff worked out at 0.00107 s⁻¹; the kon was found to be 7.33e+06 M⁻¹ s⁻¹.
For B8 the same measures were 16 fold, 3.73 nM, 0.00764 s⁻¹ and 2.05e+06 M⁻¹ s⁻¹.
